One block for each molecule: values may come before it.
Key:
[1] = molecular target: T1, AnaCTDH (CTDH, C-terminal domain homolog of OCP, clade 2) (Nostoc sp. PCC 7120 = FACHB-418, UniProt A0ACD6B996, C103F); assay: absorbance spectra after uptake from canthaxanthin-containing E. coli membranes; type: binding; details: 12 µM apo-dimer, membranes with 48 µM canthaxanthin, 33 °C, 1 h, darkness
T1 construct: gene all4940; C-terminal His-tag (plasmid pCDF-CTDHAna-C103F), expressed in E. coli; dimer about 34 kDa; the wild type was crystallised in apo form

[2] = molecular target: T2, AnaCTDH (CTDH, C-terminal domain homolog of OCP, clade 2) (Nostoc sp. PCC 7120 = FACHB-418, UniProt A0ACD6B996, C103F/DEL126-136); assay: as above; type: binding; details: 12 µM apo-dimer, membranes with 48 µM canthaxanthin, 33 °C, 1 h, darkness; C-terminal tail deleted
T2 construct: gene all4940; C-terminal His-tag (plasmid pCDF-CTDHAna-C103F), expressed in E. coli; dimer about 34 kDa; the wild type was crystallised in apo form

[3] = molecular target: Anabaena (Nostoc) PCC 7120 apo-CTDH (carotenoid-free C-terminal domain homolog of Orange Carotenoid Protein) (Anabaena (Nostoc) PCC 7120); assay: SEC; apo-AnaCTDH treated with 2 M urea overnight, preparative column, 40 mM Tris-HCl pH 8 with 2 M urea
[4] = molecular target: Anabaena (Nostoc) PCC 7120 apo-CTDH (carotenoid-free C-terminal domain homolog of Orange Carotenoid Protein) (Anabaena (Nostoc) PCC 7120); assay: native gel or EMSA; purified apo-AnaCTDH on 15% native polyacrylamide gel, pH 8 (25 mM Tris-HCl, 192 mM glycine), non-reducing
[5] = molecular target: the molecule itself; assay: SAXS; batch mode, 270 µM per monomer, 20 mM Tris-HCl pH 7.6, 150 mM NaCl, 0.1 mM EDTA, 2 mM dithiothreitol, 3% glycerol

T2 sequence (A0ACD6B996 entry or part of it C103F/DEL126-136): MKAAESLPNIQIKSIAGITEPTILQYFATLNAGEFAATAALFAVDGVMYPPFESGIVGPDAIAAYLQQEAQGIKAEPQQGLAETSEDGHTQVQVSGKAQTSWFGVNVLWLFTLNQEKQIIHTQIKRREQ
T1 sequence (A0ACD6B996 entry or part of it C103F): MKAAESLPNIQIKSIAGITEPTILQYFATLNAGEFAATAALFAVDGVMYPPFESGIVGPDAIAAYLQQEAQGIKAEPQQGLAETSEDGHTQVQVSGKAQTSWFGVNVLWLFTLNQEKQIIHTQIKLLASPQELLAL

% holo-protein formed [1]: 100%
% holo-protein formed [2]: 20(±5) %
Molecule: CC1=C(/C=C/C(C)=C/C=C/C(C)=C/C=C/C=C(C)/C=C/C=C(C)/C=C/C2=C(C)C(=O)CCC2(C)C)C(C)(C)CCC1=O [canthaxanthin]

stoichiometry N [3]: 2
stoichiometry N [4]: 2
Molecule: Anabaena (Nostoc) PCC 7120 apo-CTDH (carotenoid-free C-terminal domain homolog of Orange Carotenoid Protein) (natural protein)

B1: Apo-CTD from Synechocystis OCP (residues 165-317) (domain or fragment, Synechocystis 6803, UniProt P74102 165-317, looked up)
chain: AGKDGKRIAEPVVPPQDTASRTKVSIEGVTNATVLNYMDNLNANDFDTLIELFTSDGALQPPFQRPIVGKENVLRFFREECQNLKLIPERGVTEPAEDGFTQIKVTGKVQTPWFGGNVGMNIAWRFLLNPEGKIFFVAIDLLASPKELLNFAR
notes: C-terminal domain of the Orange Carotenoid Protein of Synechocystis 6803, residues 165-317 (of 317); 18.7 kDa construct with an uncleavable N-terminal hexahistidine tag; carotenoid-free; The SAXS modelling counts 23 flexible N-terminal residues (tag and linker included) and 12 C-terminal ones; also called apo-OCP-CTD; CTD-OCP; not shown: His6, N-terminal, kept
stoichiometry N [5]: 2

From PMC6123778, “Structural rearrangements in the C-terminal domain homolog of Orange Carotenoid Protein are crucial for carotenoid transfer” (Communications Biology, 2018)
